Experimental data as given in US20240190987A1, “Engineered EpCam Binding Antibodies” (TigaTX, priority 2021, published 2024).
Numbering of substitutions follows the chain as printed. Names and notes keep the numbering of the source. “Also recorded” adds a separate entry of the source. One block for each molecule: values may come before it.

Key:
LS2A R3M1 (Ab0786) = test: BLI binding of LS2B variants to LS2A R3M1 (Ab0786) with indinavir; conditions: for binding to LS2A clones (FIG. 17): biotinylated Ab0785 (R2M34) or Ab0786 (R3M1) captured, indinavir present; for Kd: five-point kinetics, values equal Table 15 column LS2A Ab0786
Procedure: Binding kinetics were measured by biolayer interferometry (BLI). Biotinylated-Ab0785 (LS2A R2M34 Fab) or biotinylated-Ab0786 (LS2A R3M1 Fab) was captured by streptavidin biosensors and binding to Ab1071 (LS2B R5M2 Fab), Ab1072 (LS2B R7M1 Fab), and Ab1073 (LS2B R7M2 Fab) was measured in the presence of […].
In R6 of engineering, alanine scanning of clone R4M16 were performed to find improved binding to LS2A R3M2 (Ab0787) and LS2A R3M1 (Ab0786). Variants were screened for binding to LS2A (Ab0223) and LS2A R3M2 (Ab0787) with a single-point kinetic screen.
In R7, combination mutants from R6 were designed to generate further affinity variants. Variants were screened for binding to LS2A Ab0787 and Ab0786 with a single-point kinetic screen. Five-point kinetics was measured for a subset of molecules.
(§1) Bio-layer interferometry (BLI) data were measured using an Octet RED384 (ForteBio) instrument. Antigens of interest were immobilized on an AHC biosensor and loaded until a 0.4-0.6-nm signal was achieved. Purified antibodies were used as the analyte premixed with 10 μM Indinavir or 0.05% DMSO vehicle. PBSTB (PBS, pH 7.4, 0.05% Tween-20, 0.2% BSA) was used for all buffers for BLI. Data were analyzed using ForteBio Octet analysis software and kinetic parameters were determined using a 1:1 monovalent binding model.

Ag0067 (LS2A R2M9) = test: BLI LITE Switch indinavir washout/reversibility kinetics; assay type: binding
Procedure: Binding was measured by biolayer interferometry (BLI). Biotinylated-Ag0067 (LS2A R2M9) was captured on streptavidin biosensors. Binding of 50 nM Ab1073 (LS2B R7M2) to Ag0067 was allowed to reach steady-state in the presence of 1 μM IDV. Complex dissociation was subsequently performed for 2 hours in buffer containing (1) 50 nM Ab1073 and 1 μM IDV, (2) 50 nM Ab1073 and vehicle (washout), and (3) vehicle only. […] In 2 hours of IDV washout, the LITE Switch dissociated to nearly 0% complex, whereas complete complex dissociation was observed within 10 min upon removal of both Ab1073 and IDV.
LITE Switch indinivir (IDV) washout/reversibility kinetics (FIG. 21) were measured by biolayer interferometry (BLI) on an Octet® Qke (Sartorius) instrument. Biotinylated scFv-Fc Ag67, in the presence of 1 μM IDV or 0.05% DMSO vehicle, was immobilized on streptavidin biosensors and loaded to a signal of 1.2-1.8 nm. After loading, biosensors were blocked with 10 μM biotin containing 1 μM IDV or vehicle. […] Data were analyzed using ForteBio Data Analysis HT software version 12.0.2.59. Dissociation constants were determined using a 1:1 monovalent binding model, local fitting, and with dissociation baseline to zero. Data were additionally analyzed using GraphPad Prism 9 software version 9.1.2 (225) with a one-phase exponential decay nonlinear regression model. […]

[1] = Differential scanning fluorimetry (DSF) melting temperature; assay type: physicochemical
Procedure: DSF was performed on a LC480 Lightcycler Instrument II (Roche). Purified recombinant protein was diluted to 5 μM in DSF buffer (PBS, pH 7.4, Sypro Orange 5×) with small molecule (10 μM VTX) or vehicle (0.05% DMSO) and then heated with a temperature gradient (0.01° C./s) from 25 to 95° C. Data were continuously acquired at ˜465 nm (excitation) and ˜580 nm (emission). Data was analyzed to generate first derivative curves in which the curve maximum was reported as the melting temperature of the protein.

[2] = SPR binding of free indinavir to LS2A clones; conditions: read-out: Affinity to free Indinavir by SPR
Procedure: Detailed methods are described in the methods section. […] A 3-fold serial dilution of indinavir was injected over sensor chip and binding was measured using single-cycle kinetics. The data was double reference subtracted and fit to a 1:1 Langmuir kinetic model.
All assays were performed at 25° C. in 1×PBS-P+ buffer made from a 10× buffer stock (Cytiva 28995084). […] For Ab0759, a single-cycle kinetics experiment was performed with five sequential injections of 3-fold serial diluted (37, 111, 333, 1000, 3000 nM) indinavir at 30 μL/min for 240 seconds each and dissociation was monitored for 600 seconds. […] The data was double referenced subtracted to the reference lane and five sequential injections of 0 nM indinavir. The kinetic data was fit to a 1:1 Langmuir model to determine the association and dissociation rate constants.

Ab0902 (LS2B R5M2) = test: BLI indinavir-dependent binding of LS2A Ab0223 to LS2B Ab0902
Procedure: Binding was measured by biolayer interferometry (BLI). Ab0902 (LS2B R5M2) was captured by anti-hIgG Fc capture (AHC) biosensors and kinetics was measured to Ab0223 (LS2A humanized parent) in the presence of […].
A series of biophysical experiments was conducted to further elucidate a mechanism for Indinavir switch assembly. Biolayer interferometry experiments were performed to measure LS2A and LS21B assembly in the presence and absence of saturating concentrations of Indinavir. […] A BLI kinetics assay was performed to assess the reversibility kinetics of the LS2A/LS2B complex upon Indinavir washout.
as §1

B1: Ab1071: LS2B R5M2 Fab (antibody, V domains shown)
VH: EVQLVESGGGLVQPGGSLRLSCAASGFDFSSYSIHWVRQAPGKGLEWVASISPYYGSTYYADSVKGRFTISADTSKNTAYLQMNSLRAEDTAVYYCARYYEWYKYDLYAGSLGFDYWGQGTLVTVSS
VL: DIQMTQSPSSLSASVGDRVTITCRASQSVSSAVAWYQQKPGKAPKLLIYSASSLYSGVPSRFSGSRSGTDFTLTISSLQPEDFATYYCQQGGYSLITFGQGTKVEIK
binding to LS2A clones (FIG. 17) (LS2A R3M1 (Ab0786)): weaker binding to LS2A R3M1 compared to LS2A R2M34

B6: Ab0899: humanized LS2A R3M1 (protein)
scFv: QVQLVQSGAEVKKPGASVKVSCKASGYTFTSYWMHWVRQHPGQGLEWMGMIHPNSGGTNYAQKFQGRVTMTRDTSTSTVYMELSSLRSEDTAVYYCAMGDYVSRDYWGQGTLVTVSSGGGGSGGGGSGGGGSEIVLTQSPGTLSLSPGERATLSCRASSSVSSSYLHWYQQKPGQAPRLLIYSTSSRATGIPDRFSGSGSGTDFTLTISRLEPEDFAVYYCQQYSGYQFTFGQGTKLEIK
modifications: left off: a dimerising Fc or GST; small tags and cut ends
notes: humanized LS2A R3M1
Kd [2]: 4.6 nM | TM (° C.) ([1]; scFv-Fc format, LS2A R3 (Table 20)): 56.1 °C

B7: Ab0223: LS2A humanized parent (antibody, V domains shown)
VH: QVQLVQSGAEVKKPGASVKVSCKASGYTFTSYWMHWVRQAPGQGLEWMGIIHPNSGGTSYAQKFQGRVTMTRDTSTSTVYMELSSLRSEDTAVYYCAMGDYVSRDYWGQGTLVTVSS
VL: EIVLTQSPGTLSLSPGERATLSCRASSSVSSSYLHWYQQKPGQAPRLLIYSTSSRATGIPDRFSGSGSGTDFTLTISRLEPEDFAVYYCQQYSGYLFTFGQGTKLEIK
Kd (Ab0902 (LS2B R5M2); in the presence of 10 μM IDV, read-out: affinity for binding to Ab0902): 1.6 nM | binding to Ab0902 in the absence of Indinavir (Ab0902 (LS2B R5M2); no indinavir): no binding was detected; also recorded: no detectable interaction

Second part, led by results:

binding to LS2A clones (FIG. 17) (LS2A R3M1 (Ab0786)): improved affinities
B2: Ab1072: LS2B R7M1 Fab (antibody, V domains shown)
VH: B1 VH with S50A
VL: B1 VL

binding to LS2A clones (FIG. 17) (LS2A R3M1 (Ab0786)): improved affinities
B3: Ab1073: LS2B R7M2 Fab (antibody, V domains shown)
VH: B1 VH with S50A, W102Y
VL: B1 VL
LITE Switch reversibility at constant Ab1073 and IDV (Ag0067 (LS2A R2M9); 50 nM Ab1073 and 1 μM IDV): no LITE Switch reversibility was observed | complex remaining after IDV washout (Ag0067 (LS2A R2M9); 2 hours, 50 nM Ab1073 and vehicle): ~0%

Kd (LS2A R3M1 (Ab0786)): 8.6 nM
B4: Ab1044: LS2B; HC: S50A on Ab0902 (antibody, V domains shown)
VH: B1 VH with S50A
VL: B1 VL
TM (° C.) ([1]; Table 15): 78.3 °C

Kd (LS2A R3M1 (Ab0786)): 40 nM
B5: Ab1045: LS2B; HC: S50A+W98Y on Ab0902 (antibody, V domains shown)
VH: B1 VH with S50A, W102Y
VL: B1 VL
TM (° C.) ([1]; Table 15): 77.7 °C
